# Patent US20260347496 (published 2026)
# Values joined by “and” are separate entries in the source; they are usually repeats but may differ in a detail not shown here. Equal entries are not always repeated.
# Target: CD24(27-56aa)-GST NEOX-4 (human)
# Test: ELISA
# CD24(27-56aa)-GST NEOX-4 (human), sequence (chain, as listed by the source): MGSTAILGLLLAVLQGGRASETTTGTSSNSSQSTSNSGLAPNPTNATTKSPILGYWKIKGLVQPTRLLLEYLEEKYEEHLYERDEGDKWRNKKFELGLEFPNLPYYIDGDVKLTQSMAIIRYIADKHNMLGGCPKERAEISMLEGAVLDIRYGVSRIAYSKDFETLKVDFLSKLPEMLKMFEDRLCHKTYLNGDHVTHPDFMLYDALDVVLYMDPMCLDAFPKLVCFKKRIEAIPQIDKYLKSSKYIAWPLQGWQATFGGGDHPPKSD
row,EC50,Binder
1,32.5 ng/mL,"huG14-101 (antibody, V domains shown) VH: EVQLVESGGGLVKPGGSLRLSCAASGLTFSNYWMNWVRQAPGKGLEWVALIRLYSDNYAIHYAESVKGRFTISRDDSKSTVYLQMNSLKTEDTAVYYCTTGTDYWGQGTTVTVSS VL: not shown"
2,10.9 ng/mL,"huG14-109 (antibody, V domains shown) VH: EVQLVESGGGLVKPGGSLRLSCAASGLTFSNYWGNWVRQAPGKGLEWVALIRLYSDNYAIHYAESVKGRFTISRDDSKSTVYLQMNSLKTEDTAVYYCTTGTDYWGQGTTVTVSS VL: not shown"
3,20.6 ng/mL,"huG14-105 (antibody, V domains shown) VH: EVQLVESGGGLVKPGGSLRLSCAASGLTFSNYWMNWVRQAPGKGLEWVALIRLYSDNYAIHYAESVKGRFTISRDDSKSTVYLQMNSLKTEDTAVYYCTTGTDYWGQGTTVTVSS VL: not shown"

# Target: CD24(27-56aa)-GST NEOX-4 (human)
# Test: ELISA
# Remark: another data set of the same source
row,Binder,EC50
1,"huG14-229 (antibody, V domains shown) VH: EVQLVESGGGLVKPGGSLRLSCAASGLTFSNYWGNWVRQAPGKGLEWVALIRLYSDNYAIHYAESVKGRFTISRDDSKSTVYLQMNSLKTEDTAVYYCTTGTDNWGQGTTVTVSS VL: DVVMTQSPLSLPVTPGRPASISCKSSQSLLYSNGRTYLNWLLQKPGQSPQRLIYLVSKLDSGVPDRFSGSGSGTDFTLKISRVEAEDLGVYYCIQGTYFPYTFGQGTKLEIK",9.1 ng/mL
2,"huG14-213 (antibody, V domains shown) VH: EVQLVESGGGLVKPGGSLRLSCAASGLTFSNYWGNWVRQAPGKGLEWVALIRLYSDNYAIHYAESVKGRFTISRDDSKSTVYLQMNSLKTEDTAVYYCTTGTDYWGQGTTVTVSS VL: DVVMTQSPLSLPVTPGRPASISCKSSHSLLYSNGRTYLNWLLQKPGQSPQRLIYLVSKLDSGVPDRFSGSGSGTDFTLKISRVEAEDLGVYYCVQGTYFPYTFGQGTKLEIK",3.29 ng/mL

# Results, then the binder that gave them:
row,EC50,Binder
1,6.28 ng/mL,"huG14-205 (antibody, V domains shown) VH: EVQLVESGGGLVKPGGSLRLSCAASGLTFSNYWMNWVRQAPGKGLEWVALIRLYSDNYAIHYAESVKGRFTISRDDSKSTVYLQMNSLKTEDTAVYYCTTGTDYWGQGTTVTVSS VL: DVVMTQSPLSLPVTPGRPASISCKSSHSLLYSNGKTYLNWLLQKPGQSPQRLIYLVSKLDSGVPDRFSGSGSGTDFTLKISRVEAEDLGVYYCVQGTYFPYTFGQGTKLEIK"
2,4.13 ng/mL,"huG14-209 (antibody, V domains shown) VH: EVQLVESGGGLVKPGGSLRLSCAASGLTFSNYWMNWVRQAPGKGLEWVALIRLYSDNYAIHYAESVKGRFTISRDDSKSTVYLQMNSLKTEDTAVYYCTTGTDYWGQGTTVTVSS VL: DVVMTQSPLSLPVTPGRPASISCKSSHSLLYSNGKTYLNWLLQKPGQSPQRLIYLVSKLDSGVPDRFSGSGSGTDFTLKISRVEAEDLGVYYCIQGTYFPYTFGQGTKLEIK"

# Target: CD24(27-56aa)-GST NEOX-4 (human)
# Test: ELISA
# Remark: another data set of the same source
row,Binder,EC50
1,"huG14-137 (antibody, V domains shown) VH: EVQLVESGGGLVKPGGSLRLSCAASGLTFSNYWGNWVRQAPGKGLEWVALIRLYSDNYAIHYAESVKGRFTISRDDSKSTVYLQMNSLKTEDTAVYYCTTGTDNWGQGTTVTVSS VL: not shown",3.87 ng/mL
2,"huG14-120 (antibody, V domains shown) VH: EVQLVESGGGLVKPGGSLRLSCAASGLTFSNYWGNWVRQAPGKGLEWVALIRLYSDNYAIHYAESVKGRFTISRDDSKSTVYLQMNSLKTEDTAVYYCTTGTDYWGQGTTVTVSS VL: not shown",6.23 ng/mL
3,"huG14-112 (antibody, V domains shown) VH: EVQLVESGGGLVKPGGSLRLSCAASGLTFSNYWMNWVRQAPGKGLEWVALIRLYSDNYAIHYAESVKGRFTISRDDSKSTVYLQMNSLKTEDTAVYYCTTGTDYWGQGTTVTVSS VL: not shown",12.1 ng/mL
4,"huG14-138 (antibody, V domains shown) VH: EVQLVESGGGLVKPGGSLRLSCAASGLTFSNYWGNWVRQAPGKGLEWVALIRLYSDNYAIHYAESVKGRFTISRDDSKSTVYLQMNSLKTEDTAVYYCTTGTDNWGQGTTVTVSS VL: not shown",3.28 ng/mL
5,"huG14-134 (antibody, V domains shown) VH: EVQLVESGGGLVKPGGSLRLSCAASGLTFSNYWGNWVRQAPGKGLEWVALIRLYSDNYAIHYAESVKGRFTISRDDSKSTVYLQMNSLKTEDTAVYYCTTGTDNWGQGTTVTVSS VL: not shown",3.83 ng/mL
6,"huG14-121 (antibody, V domains shown) VH: EVQLVESGGGLVKPGGSLRLSCAASGLTFSNYWGNWVRQAPGKGLEWVALIRLYSDNYAIHYAESVKGRFTISRDDSKSTVYLQMNSLKTEDTAVYYCTTGTDYWGQGTTVTVSS VL: not shown",7.37 ng/mL and 7.04 ng/mL
7,"huG14-127 (antibody, V domains shown) VH: EVQLVESGGGLVKPGGSLRLSCAASGLTFSNYWMNWVRQAPGKGLEWVALIRLYSDNYAIHYAESVKGRFTISRDDSKSTVYLQMNSLKTEDTAVYYCTTGTDNWGQGTTVTVSS VL: not shown",2.97 ng/mL
8,"huG14-129 (antibody, V domains shown) VH: EVQLVESGGGLVKPGGSLRLSCAASGLTFSNYWMNWVRQAPGKGLEWVALIRLYSDNYAIHYAESVKGRFTISRDDSKSTVYLQMNSLKTEDTAVYYCTTGTDNWGQGTTVTVSS VL: not shown",4.09 ng/mL
9,"huG14-132 (antibody, V domains shown) VH: EVQLVESGGGLVKPGGSLRLSCAASGLTFSNYWMNWVRQAPGKGLEWVALIRLYSDNYAIHYAESVKGRFTISRDDSKSTVYLQMNSLKTEDTAVYYCTTGTDNWGQGTTVTVSS VL: not shown",4.72 ng/mL
10,"huG14-115 (antibody, V domains shown) VH: EVQLVESGGGLVKPGGSLRLSCAASGLTFSNYWMNWVRQAPGKGLEWVALIRLYSDNYAIHYAESVKGRFTISRDDSKSTVYLQMNSLKTEDTAVYYCTTGTDYWGQGTTVTVSS VL: not shown",12.9 ng/mL
11,"huG14-128 (antibody, V domains shown) VH: EVQLVESGGGLVKPGGSLRLSCAASGLTFSNYWMNWVRQAPGKGLEWVALIRLYSDNYAIHYAESVKGRFTISRDDSKSTVYLQMNSLKTEDTAVYYCTTGTDNWGQGTTVTVSS VL: not shown",4.12 ng/mL

# Other lines, results leading:
row,EC50,Binder
1,4.05 ng/mL,"huG14-136 (antibody, V domains shown) VH: EVQLVESGGGLVKPGGSLRLSCAASGLTFSNYWGNWVRQAPGKGLEWVALIRLYSDNYAIHYAESVKGRFTISRDDSKSTVYLQMNSLKTEDTAVYYCTTGTDNWGQGTTVTVSS VL: not shown"
2,3.17 ng/mL,"huG14-139 (antibody, V domains shown) VH: EVQLVESGGGLVKPGGSLRLSCAASGLTFSNYWGNWVRQAPGKGLEWVALIRLYSDNYAIHYAESVKGRFTISRDDSKSTVYLQMNSLKTEDTAVYYCTTGTDNWGQGTTVTVSS VL: not shown"
3,7.27 ng/mL,"huG14-117 (antibody, V domains shown) VH: EVQLVESGGGLVKPGGSLRLSCAASGLTFSNYWMNWVRQAPGKGLEWVALIRLYSDNYAIHYAESVKGRFTISRDDSKSTVYLQMNSLKTEDTAVYYCTTGTDYWGQGTTVTVSS VL: not shown"
4,3.93 ng/mL,"huG14-126 (antibody, V domains shown) VH: EVQLVESGGGLVKPGGSLRLSCAASGLTFSNYWMNWVRQAPGKGLEWVALIRLYSDNYAIHYAESVKGRFTISRDDSKSTVYLQMNSLKTEDTAVYYCTTGTDNWGQGTTVTVSS VL: not shown"
5,3.86 ng/mL,"huG14-123 (antibody, V domains shown) VH: EVQLVESGGGLVKPGGSLRLSCAASGLTFSNYWGNWVRQAPGKGLEWVALIRLYSDNYAIHYAESVKGRFTISRDDSKSTVYLQMNSLKTEDTAVYYCTTGTDYWGQGTTVTVSS VL: not shown"
6,4.83 ng/mL,"huG14-118 (antibody, V domains shown) VH: EVQLVESGGGLVKPGGSLRLSCAASGLTFSNYWMNWVRQAPGKGLEWVALIRLYSDNYAIHYAESVKGRFTISRDDSKSTVYLQMNSLKTEDTAVYYCTTGTDYWGQGTTVTVSS VL: not shown"
7,3.87 ng/mL,"huG14-135 (antibody, V domains shown) VH: EVQLVESGGGLVKPGGSLRLSCAASGLTFSNYWGNWVRQAPGKGLEWVALIRLYSDNYAIHYAESVKGRFTISRDDSKSTVYLQMNSLKTEDTAVYYCTTGTDNWGQGTTVTVSS VL: not shown"
8,8.93 ng/mL,"huG14-119 (antibody, V domains shown) VH: EVQLVESGGGLVKPGGSLRLSCAASGLTFSNYWGNWVRQAPGKGLEWVALIRLYSDNYAIHYAESVKGRFTISRDDSKSTVYLQMNSLKTEDTAVYYCTTGTDYWGQGTTVTVSS VL: not shown"
9,7.12 ng/mL,"huG14-122 (antibody, V domains shown) VH: EVQLVESGGGLVKPGGSLRLSCAASGLTFSNYWGNWVRQAPGKGLEWVALIRLYSDNYAIHYAESVKGRFTISRDDSKSTVYLQMNSLKTEDTAVYYCTTGTDYWGQGTTVTVSS VL: not shown"
10,10.4 ng/mL,"huG14-114 (antibody, V domains shown) VH: EVQLVESGGGLVKPGGSLRLSCAASGLTFSNYWMNWVRQAPGKGLEWVALIRLYSDNYAIHYAESVKGRFTISRDDSKSTVYLQMNSLKTEDTAVYYCTTGTDYWGQGTTVTVSS VL: not shown"
11,11.2 ng/mL,"huG14-116 (antibody, V domains shown) VH: EVQLVESGGGLVKPGGSLRLSCAASGLTFSNYWMNWVRQAPGKGLEWVALIRLYSDNYAIHYAESVKGRFTISRDDSKSTVYLQMNSLKTEDTAVYYCTTGTDYWGQGTTVTVSS VL: not shown"
12,3.89 ng/mL,"huG14-130 (antibody, V domains shown) VH: EVQLVESGGGLVKPGGSLRLSCAASGLTFSNYWMNWVRQAPGKGLEWVALIRLYSDNYAIHYAESVKGRFTISRDDSKSTVYLQMNSLKTEDTAVYYCTTGTDNWGQGTTVTVSS VL: not shown"
13,11.9 ng/mL,"huG14-113 (antibody, V domains shown) VH: EVQLVESGGGLVKPGGSLRLSCAASGLTFSNYWMNWVRQAPGKGLEWVALIRLYSDNYAIHYAESVKGRFTISRDDSKSTVYLQMNSLKTEDTAVYYCTTGTDYWGQGTTVTVSS VL: not shown"
14,5.66 ng/mL,"huG14-133 (antibody, V domains shown) VH: EVQLVESGGGLVKPGGSLRLSCAASGLTFSNYWGNWVRQAPGKGLEWVALIRLYSDNYAIHYAESVKGRFTISRDDSKSTVYLQMNSLKTEDTAVYYCTTGTDNWGQGTTVTVSS VL: not shown"
